# Data taken from the supplement of paper PMC9112550, “Optimization of the antimicrobial peptide Bac7 by deep mutational scanning” (BMC Biology, 2022).
# Test system: Escherichia coli TOP10
# Test: shrunken log2 fold change of peptide-encoding DNA abundance (4.5 h post-induction vs induction); higher = less antimicrobial activity (less host growth inhibition)
# Details: time post-induction: 4.5 h; library: site-saturation at positions 5, 18, 19, 20
# 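Further: peptides expressed intracellularly from a pBAD plasmid library in pooled LB shake-flask culture, induced with 0.3% L-arabinose, DNA abundance read by NGS, three biological replicates, DESeq2 with apeglm shrinkage.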
row,Sequence,shrunken log2 fold change
1,RRIRMRPPRLPRPRPRPYHFPRP,-0.16
2,RRIRQRPPRLPRPRPRPGTMPRP,0.00897
3,RRIRHRPPRLPRPRPRPFENPRP,-0.0293
4,RRIRFRPPRLPRPRPRPYIWPRP,-0.425
5,RRIRGRPPRLPRPRPRPATYPRP,0.235
6,RRIRERPPRLPRPRPRPNYWPRP,-0.344
7,RRIRCRPPRLPRPRPRPGWMPRP,0.0485
8,RRIRRRPPRLPRPRPRPDFFPRP,-0.00974
9,RRIRRRPPRLPRPRPRPSGAPRP,0.536
10,RRIRFRPPRLPRPRPRPSWAPRP,-0.308
11,RRIRGRPPRLPRPRPRPYHWPRP,-0.407
12,RRIRPRPPRLPRPRPRPWKCPRP,0.0176
13,RRIRSRPPRLPRPRPRPANNPRP,-0.367
14,RRIRERPPRLPRPRPRPTVWPRP,0.217
15,RRIRNRPPRLPRPRPRPIQRPRP,0.00743
16,RRIRPRPPRLPRPRPRPIRSPRP,0.00396
17,RRIRWRPPRLPRPRPRPIPMPRP,0.112
18,RRIRARPPRLPRPRPRPNYCPRP,-0.223
19,RRIRQRPPRLPRPRPRPHLHPRP,-0.177
20,RRIRCRPPRLPRPRPRPYNNPRP,-1.23
21,RRIRPRPPRLPRPRPRPQVEPRP,0.102
22,RRIRWRPPRLPRPRPRPGCNPRP,-0.0626

row,Sequence,shrunken log2 fold change
1,RRIRVRPPRLPRPRPRPSVAPRP,0.595
2,RRIRHRPPRLPRPRPRPAFKPRP,-0.0994
3,RRIRMRPPRLPRPRPRPVAGPRP,1.31
4,RRIRQRPPRLPRPRPRPSRSPRP,-0.117
5,RRIRKRPPRLPRPRPRPPHYPRP,0.176
6,RRIRYRPPRLPRPRPRPAEYPRP,-0.58
7,RRIRKRPPRLPRPRPRPPMPPRP,0.525
8,RRIRWRPPRLPRPRPRPNRWPRP,0.218
9,RRIRWRPPRLPRPRPRPIVCPRP,0.0105
10,RRIRHRPPRLPRPRPRPIPHPRP,-0.664
11,RRIRMRPPRLPRPRPRPHCTPRP,-0.147
12,RRIRFRPPRLPRPRPRPFPEPRP,-0.363
13,RRIRMRPPRLPRPRPRPDLIPRP,0.0508
14,RRIRMRPPRLPRPRPRPQTVPRP,0.291
15,RRIRIRPPRLPRPRPRPANAPRP,-0.319
16,RRIRNRPPRLPRPRPRPWITPRP,-0.0261
17,RRIRIRPPRLPRPRPRPPRHPRP,0.166
18,RRIRRRPPRLPRPRPRPSQVPRP,0.0533
19,RRIRCRPPRLPRPRPRPTAPPRP,0.826
20,RRIRWRPPRLPRPRPRPLRYPRP,-0.0913
21,RRIRLRPPRLPRPRPRPYDVPRP,-0.366
22,RRIRKRPPRLPRPRPRPICNPRP,0.102

row,Sequence,shrunken log2 fold change
1,RRIRCRPPRLPRPRPRPHEEPRP,0.0524
2,RRIRYRPPRLPRPRPRPVQWPRP,-0.126
3,RRIRRRPPRLPRPRPRPHWCPRP,0.0137
4,RRIRRRPPRLPRPRPRPVLKPRP,0.267
5,RRIRARPPRLPRPRPRPLMYPRP,-0.165
6,RRIRWRPPRLPRPRPRPFGTPRP,0.00184
7,RRIRNRPPRLPRPRPRPMLGPRP,0.0259
8,RRIRIRPPRLPRPRPRPTACPRP,0.0015
9,RRIRWRPPRLPRPRPRPHCYPRP,-0.0542
10,RRIRLRPPRLPRPRPRPCNGPRP,-0.00674
11,RRIRGRPPRLPRPRPRPCSFPRP,0.2
12,RRIRYRPPRLPRPRPRPPSLPRP,0.289
13,RRIRVRPPRLPRPRPRPMAWPRP,-0.114
14,RRIRVRPPRLPRPRPRPPHQPRP,0.0363
15,RRIRFRPPRLPRPRPRPNSDPRP,-0.209
16,RRIRTRPPRLPRPRPRPWTQPRP,0.0256
17,RRIRDRPPRLPRPRPRPHYQPRP,0.0231
18,RRIRIRPPRLPRPRPRPAEPPRP,-0.21
19,RRIRPRPPRLPRPRPRPKGAPRP,0.21
20,RRIRSRPPRLPRPRPRPNWTPRP,-0.000246
21,RRIRERPPRLPRPRPRPCWCPRP,-0.0114
22,RRIRRRPPRLPRPRPRPAYDPRP,0.0406

row,Sequence,shrunken log2 fold change
1,RRIRQRPPRLPRPRPRPEVCPRP,0.134
2,RRIRNRPPRLPRPRPRPWNQPRP,-0.0135
3,RRIRVRPPRLPRPRPRPEVFPRP,0.0748
4,RRIRTRPPRLPRPRPRPAFMPRP,-0.0227
5,RRIRRRPPRLPRPRPRPQIHPRP,-0.515
6,RRIRARPPRLPRPRPRPPKLPRP,0.683
7,RRIRNRPPRLPRPRPRPVYRPRP,-0.815
8,RRIRARPPRLPRPRPRPCALPRP,0.00197
9,RRIRQRPPRLPRPRPRPQNQPRP,-0.17
10,RRIRHRPPRLPRPRPRPMKRPRP,0.0794
11,RRIRKRPPRLPRPRPRPCTTPRP,-0.132
12,RRIRKRPPRLPRPRPRPCRAPRP,0.57
13,RRIRRRPPRLPRPRPRPNCRPRP,0.563
14,RRIRPRPPRLPRPRPRPGMYPRP,-0.0544
15,RRIRFRPPRLPRPRPRPMYGPRP,-0.36
16,RRIRGRPPRLPRPRPRPEETPRP,1.51
17,RRIRNRPPRLPRPRPRPGRDPRP,0.366
18,RRIRNRPPRLPRPRPRPQNRPRP,-0.184
19,RRIRMRPPRLPRPRPRPQCQPRP,-0.0148
20,RRIRERPPRLPRPRPRPLAFPRP,-0.0552
21,RRIRTRPPRLPRPRPRPHFSPRP,0.0329
22,RRIRFRPPRLPRPRPRPYKMPRP,-0.62

row,Sequence,shrunken log2 fold change
1,RRIRWRPPRLPRPRPRPFQQPRP,-0.0106
2,RRIRQRPPRLPRPRPRPYHIPRP,0.0735
3,RRIRGRPPRLPRPRPRPTKSPRP,0.583
4,RRIRNRPPRLPRPRPRPMHPPRP,-0.212
5,RRIRVRPPRLPRPRPRPVQWPRP,-0.0327
6,RRIRQRPPRLPRPRPRPGCWPRP,0.548
7,RRIRMRPPRLPRPRPRPCPSPRP,0.0607
8,RRIRMRPPRLPRPRPRPNMPPRP,-0.286
9,RRIRSRPPRLPRPRPRPSLPPRP,-0.352
10,RRIRPRPPRLPRPRPRPTDHPRP,-0.114
11,RRIRIRPPRLPRPRPRPVYYPRP,-1.62
12,RRIRSRPPRLPRPRPRPPVWPRP,0.48
13,RRIRYRPPRLPRPRPRPPMLPRP,-0.492
14,RRIRTRPPRLPRPRPRPDWTPRP,-0.179
15,RRIRMRPPRLPRPRPRPNLTPRP,0.0283
16,RRIRIRPPRLPRPRPRPDRKPRP,-0.0167
17,RRIRLRPPRLPRPRPRPYCEPRP,-0.135
18,RRIRNRPPRLPRPRPRPHRHPRP,-0.222
19,RRIRERPPRLPRPRPRPIKLPRP,-0.481
20,RRIRERPPRLPRPRPRPPLFPRP,0.124
21,RRIRGRPPRLPRPRPRPDGGPRP,0.468
